According to patent US20110189084A1, “Method for Treating Liver Disorders with Receptor Associated Protein (RAP) Peptide-Fucosidase Inhibitor Conjugates” (RAPTOR PHARMACEUTICAL INC., priority 2010, published 2011):
Each block holds one molecule with its values, some of them ahead of it. Bridge positions count the residues as written; N and C are the ends. Ends that are not written are not given here.

Key:
LRP1 = target: T1, LRP1 (Homo sapiens, UniProt Q07954); details: read-out: affinity for LRP1; cited from earlier work
T1 sequence (Q07954 786-1165 limits assumed): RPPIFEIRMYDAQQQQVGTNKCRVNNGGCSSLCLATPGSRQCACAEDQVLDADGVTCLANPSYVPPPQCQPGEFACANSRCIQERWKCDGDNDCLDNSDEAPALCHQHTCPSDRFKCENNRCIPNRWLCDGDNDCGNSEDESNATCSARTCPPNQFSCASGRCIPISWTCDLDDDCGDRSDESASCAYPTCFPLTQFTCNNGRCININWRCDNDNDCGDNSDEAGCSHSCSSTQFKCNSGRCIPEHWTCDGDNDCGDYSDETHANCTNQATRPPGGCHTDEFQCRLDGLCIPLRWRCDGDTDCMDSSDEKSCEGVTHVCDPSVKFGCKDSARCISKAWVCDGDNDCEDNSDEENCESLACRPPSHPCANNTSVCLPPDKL

[1] = cited from earlier work
[2] = intravenously administered, rodent and feline species; cited from earlier work
lysosomal fucosidase = target: T2, lysosomal fucosidase (Homo sapiens, UniProt P04066); assay: fucosidase activity in lysates of treated HepG2 cells (4-MU-fucopyranoside); format: cell-based; details: 72 hours, versus buffer
T2 construct: Fucosidase activity in 20 μL of each lysate sample was measured; endogenous in cells; host or cells: HepG2
T2 sequence (P04066 32-466): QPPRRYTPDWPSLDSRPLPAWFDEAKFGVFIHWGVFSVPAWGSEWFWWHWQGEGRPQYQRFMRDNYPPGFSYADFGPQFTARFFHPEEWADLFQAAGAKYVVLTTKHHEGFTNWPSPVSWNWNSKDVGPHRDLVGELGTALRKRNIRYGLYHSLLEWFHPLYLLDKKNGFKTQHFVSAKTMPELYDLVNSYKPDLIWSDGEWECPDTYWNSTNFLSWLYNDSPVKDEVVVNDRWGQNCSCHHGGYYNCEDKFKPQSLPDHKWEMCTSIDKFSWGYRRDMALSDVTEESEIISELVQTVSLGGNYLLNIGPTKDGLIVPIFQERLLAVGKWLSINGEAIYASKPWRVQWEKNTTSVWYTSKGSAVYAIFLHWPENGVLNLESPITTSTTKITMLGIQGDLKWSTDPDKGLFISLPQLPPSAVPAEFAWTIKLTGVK
Protocol: HepG2 human hepatocellular carcinoma cells were seeded in 6-well tissue culture plates at 4×10^5 per well. […] Cells were then washed with cold PBS, scraped into a microfuge tube, pelleted and lysed. Total protein concentration was determined by Bradford assay for each sample and lysate volumes adjusted to 0.3 mg/mL. Fucosidase activity in 20 μL of each lysate sample was measured by adding 100 μL of 0.5 mM 4-MU-fucopyranoside with subsequent incubation at 37° C. for 30 minutes. Reactions were quenched with 130 μL of 600 mM citrate/carbonate buffer at pH 9. Released 4-MU was assayed in a fluorescence microplate reader (see Example 1 above). […] Duplicate sample activity values were averaged and plotted.

[3] = target: T3, human liver alpha-L-fucosidase (Homo sapiens, UniProt P04066); details: ref [12]; cited from earlier work
T3 sequence (P04066 32-466): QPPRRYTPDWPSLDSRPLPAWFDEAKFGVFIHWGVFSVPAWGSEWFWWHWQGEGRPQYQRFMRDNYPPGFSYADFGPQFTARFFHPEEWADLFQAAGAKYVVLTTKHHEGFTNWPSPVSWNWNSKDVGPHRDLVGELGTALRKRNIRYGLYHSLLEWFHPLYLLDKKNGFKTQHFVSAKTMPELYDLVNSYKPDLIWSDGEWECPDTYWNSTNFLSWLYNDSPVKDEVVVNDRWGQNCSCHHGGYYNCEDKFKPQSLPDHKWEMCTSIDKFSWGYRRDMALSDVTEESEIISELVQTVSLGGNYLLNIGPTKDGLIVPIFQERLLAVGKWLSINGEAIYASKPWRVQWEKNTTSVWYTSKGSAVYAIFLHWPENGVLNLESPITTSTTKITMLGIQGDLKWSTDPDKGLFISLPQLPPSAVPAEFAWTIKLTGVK

Molecule: mRAP14c: RAP residues 250-309 with substitutions F250C, L308G and Q309C (CEAKIEKHNHYQKQLEIAHEKLRHAESVGDGERVSRSREKHALLEGRTKELGYTVKKHGC; disulfide 1-60 (inferred))
Kd (LRP1): ~21 nM

Molecule: RAP: mature receptor associated protein, 323 amino acid peptide, SEQ ID NO: 1
circulating half-life ([1]; injected RAP, intravenous): less than a minute | exogenous RAP accumulating in the liver ([1]; intravenous bolus injection of 30 picomoles, within 10 minutes): over 70% | accumulation in heart, brain, muscle or kidney ([1]; intravenous): < 1 % of injected dose | toxicity [2]: no measurable toxicity

inhibition at 30 µM (lysosomal fucosidase): > 50%
Molecule: C[C@@H]1NC[C@@H](O)[C@H](O)[C@@H]1O [L-deoxyfuconojirimycin]

Molecule: CCCCN1C[C@H](O)[C@@H](O)[C@H](O)[C@H](C(=O)O)C1 [Faz, (3R,4R,5S,6S)-1-butyl-4,5,6-trihydroxyazepane-3-carboxylic acid]
potency of fucosidase inhibition [3]: low nanomolar range

B1: mRAPc: RAP d3 with the modifications A242G, R314G, E241C and I315C (peptide)
chain: CGFREELKHFEAKIEKHNHYQKQLEIAHEKLRHAESVGDGERVSRSREKHALLEGRTKELGYTVKKHLQDLSGGC
Kd (LRP1): ~10 nM
